Where no end group is shown, it is not given here.

The assay has as its target T1, MBP-KLHL15-His (human, UniProt Q96M94 1-604).
T1 construct: KLHL15, human; gene amplified from the pCMV6-KLHL15 vector and subcloned into the pFB-MBP-fusion plasmid; In the pull-downs MBP was kept (coupled to amylose beads); MBP was cleaved only for the protein purified further; also called recombinant MBP-KLHL15; recombinant KLHL15 purified from insect cells; not shown: MBP, N-terminal, kept
T1 sequence (looked up): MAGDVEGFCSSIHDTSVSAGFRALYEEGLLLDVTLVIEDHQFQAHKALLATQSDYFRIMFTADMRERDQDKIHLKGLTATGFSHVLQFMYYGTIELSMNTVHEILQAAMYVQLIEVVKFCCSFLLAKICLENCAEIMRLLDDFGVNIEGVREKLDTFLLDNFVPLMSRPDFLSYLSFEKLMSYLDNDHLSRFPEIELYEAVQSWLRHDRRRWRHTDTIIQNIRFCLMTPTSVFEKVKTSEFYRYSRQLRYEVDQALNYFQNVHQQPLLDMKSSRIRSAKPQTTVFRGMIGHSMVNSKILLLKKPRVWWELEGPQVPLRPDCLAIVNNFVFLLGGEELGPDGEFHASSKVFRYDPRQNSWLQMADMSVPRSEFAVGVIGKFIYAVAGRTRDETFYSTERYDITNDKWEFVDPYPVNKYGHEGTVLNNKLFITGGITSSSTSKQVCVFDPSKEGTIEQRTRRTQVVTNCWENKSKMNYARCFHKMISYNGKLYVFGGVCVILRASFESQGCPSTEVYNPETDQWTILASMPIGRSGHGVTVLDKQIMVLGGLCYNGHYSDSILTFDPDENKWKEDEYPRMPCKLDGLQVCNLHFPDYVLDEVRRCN
Kind of assay: pull-down; competition: CtIP 15-mer peptide added in the indicated amounts to MBP-KLHL15 on amylose beads with HEK293T lysate. The settings on record: both partners purified.

B1: biotinylated 15-mer peptide encompassing CtIP amino acid residues 830–844 (peptide, UniProt Q99708 830-844, looked up)
peptide: KKLASCSRHRFRYIP
modifications: also: biotinylated (position not given here)
notes: CtIP, human, residues 830-844 in the CTD; also called CtIP peptide; CtIP 15-mer peptide; source: synthetic peptide, bought: Bachem AG
Consider B1, for which the binding result is recorded as “binds”.

The record behind these values is article PMC5007465, “Cullin3-KLHL15 ubiquitin ligase mediates CtIP protein turnover to fine-tune DNA-end resection” (Nature Communications, 2016).
